Columns and labels:
Assay in all cases: steady-state kinetics, HPLC of amide product
Type in all cases: biochemical, Streptomyces sp. CB02304
[1] = target: PtmC^t (Streptomyces platensis, UniProt D8L2W0); settings: 8 at 750 μM (partial saturation), 16 varied 10-200 μM; 50 mM MOPS pH 6.5
[2] = tested on: Nc1c(O)ccc(C(=O)O)c1O; settings: 16 at 250 μM
[3] = tested on: Nc1c(O)ccc(C(=O)S)c1O; settings: 16 at 250 μM, 9 varied 25-1500 μM, 50 mM MOPS pH 6.5, 30 °C
[4] = 8 varied 25-1500 μM, 50 mM MOPS pH 6.5, 30 °C
[5] = 8 varied 100-1000 μM, 50 mM MOPS pH 6.5

PtmC^t, sequence (D8L2W0 1-279 limits assumed): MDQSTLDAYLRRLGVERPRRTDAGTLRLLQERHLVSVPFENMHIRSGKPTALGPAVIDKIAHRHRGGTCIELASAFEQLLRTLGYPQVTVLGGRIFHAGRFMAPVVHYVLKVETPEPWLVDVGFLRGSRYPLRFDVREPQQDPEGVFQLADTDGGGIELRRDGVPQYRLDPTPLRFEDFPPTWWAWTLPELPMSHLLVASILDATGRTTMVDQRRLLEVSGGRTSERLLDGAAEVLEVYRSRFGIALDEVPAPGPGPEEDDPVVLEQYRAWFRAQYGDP

Work on `CC(C)(COP(=O)(O)OP(=O)(O)OC[C@H]1O[C@@H](n2cnc3c(N)ncnc32)[C@H](O)[C@@H]1OP(=O)(O)O)[C@@H](O)C(=O)NCCC(=O)NCCSC(=O)CC[C@]1(C)C(=O)C=C[C@]23C[C@H]4C[C@H](O[C@@]4(C)C2)[C@H]31` [compound 16, platensicyl-CoA] yielded a Km [1] of 23.7 ± 6.1 µM.
In the case of PtmC (Streptomyces platensis), the Km [2, 4] is reported as 372 ± 49 µM, the kcat [2, 4] is reported as 1.54 ± 0.075 s⁻¹ and the Km [3] is reported as 142 ± 54 µM. For the same compound, the kcat [3] was 4.7 ± 0.067 s⁻¹.
Compound PtmC^t (Streptomyces platensis) has a Km [2, 5] of 375 ± 119 µM and a kcat [2, 5] of 0.318 ± 0.0417 s⁻¹.
